Source: patent US20250257128A1 (DRAGONBOAT BIOPHARMACEUTICAL SHANGHAI, published 2025)
Substitutions are numbered along the chain they refer to. Where “and” joins values, the source holds several entries; their conditions need not be identical. Equal values may be shown once. Blank lines part the entries; values can stand above or below the binder they belong to.

Tests used:
human CD47 [1] = target: T1, human CD47 (human, UniProt Q08722 19-323); assay: flow cytometry on human red blood cells, antibody at 150 µg/mL
T1 construct: whole, on cells; also called CD47 on red blood cells; endogenous CD47 on NUGC-4 cells
Experimental: (§1) Flow cytometry was used to determine whether the bispecific antibody was bound to red blood cells. Another anti-CD47 antibody F4AM4-IgG1 (abbreviated as F4AM4 in the accompanying drawings; the amino acid sequence of the heavy chain is SEQ ID NO: 24, and the amino acid sequence of the light chain is SEQ ID NO: 25) developed by the applicant was used as a positive control antibody.
(§2) The specific method was as follows: red blood cells were isolated from 1 mL of anticoagulant human blood, and the supernatant was aspirated following centrifugation. After the cells were rinsed twice with PBS, 1 mL of PBS was added to resuspend the red blood cells. The red blood cells were diluted to 1×10⁷/mL with PBS, pipetted at 50 μL/well and added to a 96-well round bottom cell culture plate. Then an equal volume of the serially diluted antibody to be tested was added, fully mixed, and incubated at 4° C. for 1 h. After the culture was rinsed with FACS buffer for three times, 0.5 μg of PE-labeled goat anti-human IgG Fc antibody (Abcam, ab98596) was added, followed by incubation at 4° C. for 1 h. Subsequently, the cells were rinsed with FACS buffer for three times and then resuspended by adding 200 μL of FACS buffer, and finally the amount of the antibody binding to the red blood cells (expressed as mean fluorescence intensity (MFI)) was measured by a flow cytometer (Beckman, CytoFLEX AOO-1-1102).

human CD47 [2] = target: T1, human CD47; assay: flow cytometry on human red blood cells, antibody at 15 µg/mL
Experimental: as §1, §2

human CD47 [3] = target: T1, human CD47; assay: flow cytometry, blocking of SIRPα-mFc binding to CD47 on hCLDN18.2-NUGC-4 cells
Experimental: (§3) The specific method was as follows: 1×10⁵ NUGC-4 cells or hCLDN18.2-NUGC-4 cells were taken and centrifuged at a low speed (300 g), and the supernatant was removed. The cells at the bottom of the centrifuge tube were rinsed once with a formulated FACS buffer (1×PBS buffer containing 2% FBS). Subsequently, the serially diluted antibody to be tested was added to the rinsed cells, which were then incubated for 1 h. After the cells were rinsed twice with FACS buffer, 100 μL of 1 μg/mL SIRPα-mFc (ACRO, SIA-H52A8) was added, followed by incubation at 4° C. for 1 h. After the cells were rinsed with FACS buffer for three times, 100 μL of 1:200 diluted PE-labeled goat anti-mouse Fc (Abcam, ab98742) was added as the secondary antibody, followed by incubation at 4° C. for 1 h. After centrifugation, the supernatant was removed, the cells were resuspended by adding 200 μL of FACS buffer, and finally the amount of SIRPα-mFc binding to the cells (expressed as mean fluorescence intensity (MFI)) was measured by a flow cytometer (Beckman, CytoFLEX AOO-1-1102).
Besides, due to the fact that the anti-CLDN18.2 single domain antibody NA3S-H1 was only bound to CLDN18.2, the antibody had no blocking effect.

human CD47 [4] = target: T1, human CD47; assay: flow cytometry, blocking of SIRPα-mFc binding to CD47 on NUGC-4 cells
Experimental: as §3

T1 sequence (Q08722 19-323): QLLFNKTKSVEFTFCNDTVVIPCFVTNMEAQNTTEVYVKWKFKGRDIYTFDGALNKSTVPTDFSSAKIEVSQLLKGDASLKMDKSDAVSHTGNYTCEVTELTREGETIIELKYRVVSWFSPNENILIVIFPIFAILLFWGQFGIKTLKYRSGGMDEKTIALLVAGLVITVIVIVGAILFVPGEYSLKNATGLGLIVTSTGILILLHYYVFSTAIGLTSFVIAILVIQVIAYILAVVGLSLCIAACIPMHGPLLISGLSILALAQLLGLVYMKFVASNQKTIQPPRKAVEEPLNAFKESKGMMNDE

MFI (human CD47 [1]): 1220 MFI
MFI (human CD47 [2]): 239 MFI
B1: anti-CD47/anti-CLDN18.2 bispecific antibody B9 (bispecific antibody, human IgG1, kappa)
heavy: not shown
light: QVQLVESGGGLVQPGGSLRLSCAASGSIFNIPVMGWYRQAPGKQRELVAGISTGGTTNYGDSVKGRFTISRDNAKNTVYLQMNSLKPEDTAVYYCNVLVVSGIGSTLEVWGQGTLVTVSSGGGGSGGGGSDIQMTQSPSSLSASVGDRVTITCRASQDISNHLNWYQQKPGKAPKLLIYYTSRIHSGVPSSFRGSGSGTDYTLTISSLQPEDIATYFCQQGYTLPFTFGSGTKLEIKRTVAAPSVFIFPPSDEQLKSGTASVVCLLNNFYPREAKVQWKVDNALQSGNSQESVTEQDSKDSTYSLSSTLTLSKADYEKHKVYACEVTHQGLSSPVTKSFNRGEC
notes: IgG-like format; NA3S-H1 VHH at the N-terminus of the light chain through Linker1

MFI (human CD47 [1]): 847 MFI
MFI (human CD47 [2]): 238 MFI
B2: anti-CD47/anti-CLDN18.2 bispecific antibody B11 (bispecific antibody, human IgG1, kappa)
heavy: not shown
light: B1 light
notes: IgG-like format; NA3S-H1 VHH at the N-terminus of both heavy and light chains

IC50 (human CD47 [3]): 12 µg/mL and 82.3 nM
IC50 (human CD47 [4]): 15.4 µg/mL and 106 nM
B3: antibody 1F8 (the 1F8 antibody in WO 2018075857 A1) (antibody, V domains shown)
VH: KVQLVESGGGLVKPGGSLRLSCAASGFTFSNAWMNWVRQAPGKGLEWVGRIKRKTDGETTDYAAPVKGRFSISRDDSKNTLYLQMNSLKTEDTAVYYCAGSNRAFDIWGQGTMVTVSA
VL: DIVMTQSPDSLAVSLGERATINCKSSQSVLYSSNNRNYLAWYQQKPGQPPKLLINQASTRASGVPDRFSGSGSGTEFTLIISSLHAEDVAIYYCQQYYTPPLAFGGGTKLEIK

MFI (human CD47 [1]): 2140 MFI
MFI (human CD47 [2]): 988 MFI
B4: anti-CD47/anti-CLDN18.2 bispecific antibody B8 (bispecific antibody, human IgG1, kappa)
heavy: not shown
light: DIQMTQSPSSLSASVGDRVTITCRASQDISNHLNWYQQKPGKAPKLLIYYTSRIHSGVPSSFRGSGSGTDYTLTISSLQPEDIATYFCQQGYTLPFTFGSGTKLEIKRTVAAPSVFIFPPSDEQLKSGTASVVCLLNNFYPREAKVQWKVDNALQSGNSQESVTEQDSKDSTYSLSSTLTLSKADYEKHKVYACEVTHQGLSSPVTKSFNRGEC
notes: IgG-like format, human IgG1 / kappa constant regions

MFI (human CD47 [1]): 2490 MFI
IC50 (human CD47 [3]): 0.765 µg/mL and 4.48 nM
MFI (human CD47 [2]): 534 MFI
B5: anti-CD47/anti-CLDN18.2 bispecific antibody B10 (bispecific antibody, human IgG1, kappa)
heavy: not shown
light: B4 light
notes: IgG-like format; NA3S-H1 VHH at the C-terminus of the heavy chain through Linker1

MFI (human CD47 [1]): 2530 MFI
MFI (human CD47 [2]): 1620 MFI
B6: anti-CD47/anti-CLDN18.2 bispecific antibody B12 (bispecific antibody, human IgG1, kappa)
heavy: not shown
light: B4 light
notes: IgG-like format; NA3S-H1 VHH at the N-terminus of the heavy chain through Linker2 (GGGGS)

MFI (human CD47 [1]): 608 MFI
MFI (human CD47 [2]): 463 MFI
B7: anti-CD47 humanized antibody A7H3L3 (antibody, human IgG1, kappa, V domains shown)
VH: QVQLVQSGAEVKKPGASVKVSCKASGFNIKDIYIYWVRQAPGQGLEWIGKIDPANGNTKYDQKFQGRATITADTSTNTAYLELSSLRSEDTAVYYCARGYGSGFAYWGQGTLVTVSS
VL: DIQMTQSPSSLSASVGDRVTITCRASQDISNHLNWYQQKPGKAPKLLIYYTSRIHSGVPSSFRGSGSGTDYTLTISSLQPEDIATYFCQQGYTLPFTFGSGTKLEIKR
notes: also called A7H3L3 monoclonal antibody; anti-CD47 monoclonal antibody A7H3L3

IC50 (human CD47 [3]): 0.056 µg/mL and 0.383 nM
IC50 (human CD47 [4]): 0.033 µg/mL and 0.226 nM
B8: anti-CD47 antibody F4AM4-IgG1 (antibody, V domains shown)
VH: QVQLVQSGAEVKKPGASVKMSCKASGYTFTSSVMHWVRQAPGQGLEWIGYINPYTDGTKYAQKFQGRATLTSDKSTSTAYMEFSSLRSEDTAVYYCGRPYYGTRYGSWFAYWGQGTLVTVSS
VL: B7 VL with H32Y, I54L, S61R, R63S, S77N, F87Y, Y92K, T93N, L94Y
notes: Positive control anti-CD47 antibody developed by the applicant
